Laboratory results published in patent US20210363241A1.

Tests used:
[1] = molecular target: Human CD226 on the cell surface of stably transfected HEK 293 cells (human) (UniProt Q15762); experiment: flow cytometry on HEK 293 cells expressing human CD226, control IgG (denominator of the ratio)
[2] = molecular target: Cynomolgus monkey CD226 on the cell surface of stably transfected HEK 293 cells (cynomolgus monkey); experiment: flow cytometry on HEK 293 cells expressing cynomolgus CD226, control IgG (denominator of the ratio)
Chain of Cynomolgus monkey CD226 on the cell surface of stably transfected HEK 293 cells (cynomolgus monkey) (chain, as listed by the source): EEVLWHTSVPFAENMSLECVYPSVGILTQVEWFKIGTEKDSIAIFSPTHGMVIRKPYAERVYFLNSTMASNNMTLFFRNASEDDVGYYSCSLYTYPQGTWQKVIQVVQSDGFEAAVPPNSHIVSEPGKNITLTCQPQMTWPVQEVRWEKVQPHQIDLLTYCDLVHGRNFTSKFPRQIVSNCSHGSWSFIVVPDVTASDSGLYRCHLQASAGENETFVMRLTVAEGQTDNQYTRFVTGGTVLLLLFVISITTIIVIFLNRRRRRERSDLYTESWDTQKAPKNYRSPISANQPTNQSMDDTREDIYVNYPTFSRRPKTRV

Chain of Human CD226 on the cell surface of stably transfected HEK 293 cells (human) (Q15762 19-336 limits assumed): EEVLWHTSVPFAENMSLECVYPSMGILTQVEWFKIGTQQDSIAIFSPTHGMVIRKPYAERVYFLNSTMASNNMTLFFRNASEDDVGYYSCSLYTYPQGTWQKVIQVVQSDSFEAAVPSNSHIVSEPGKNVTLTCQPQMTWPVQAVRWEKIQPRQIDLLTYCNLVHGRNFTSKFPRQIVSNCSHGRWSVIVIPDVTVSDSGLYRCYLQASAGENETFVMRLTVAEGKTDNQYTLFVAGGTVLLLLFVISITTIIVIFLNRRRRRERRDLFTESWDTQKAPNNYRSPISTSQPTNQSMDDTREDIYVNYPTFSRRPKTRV

Substance: Control human IgG1 (antibody)
- MFI [1]: 8.98
- MFI [2]: 3.94
